Source: patent US20150343088A1 (KAGOSHIMA UNIVERSITY, published 2015)

Molecular target: T1, human folate receptor β (human, UniProt P14207 17-230)
T1 construct: whole, on cells; also called FRβ; FR-β
Assay: flow cytometry on human FRβ-expressing B300-19 cells
Experimental: The cells were further reacted with an anti-rat antibody labeled with APC. After the end of reaction, stainability was determined using a flow cytometer.

T1 sequence (P14207 17-230): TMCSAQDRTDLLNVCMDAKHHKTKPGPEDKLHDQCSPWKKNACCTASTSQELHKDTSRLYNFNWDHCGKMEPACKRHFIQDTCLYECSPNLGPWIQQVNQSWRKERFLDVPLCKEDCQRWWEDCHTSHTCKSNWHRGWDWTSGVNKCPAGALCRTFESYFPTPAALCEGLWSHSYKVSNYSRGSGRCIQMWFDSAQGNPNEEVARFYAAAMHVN

B1: anti-human FRα/β rat monoclonal antibody (clone name: No. 5) (antibody, V domains shown)
VH: QVQLKESGPGLVQPSQTLSLTCTVSGFSLTSNSVSWVRQPPGKGLEWMGAIWSGGSTDYNSALKSRLSISKDTSKSQVFLKMNSLQTEDTAIYFCTRYYGYTYFAYWGQGVMVTVSS
VL: DIQMTQSPASLSASLEEIVTITCQASQDIGNWLAWYQQKPGKSPQLLIYDAIRLADGVPSRFSGSRSGTQYSLKISRLQVEDIGDYYCQQGQSNPRTFGGGTKLELK
notes: also called antibody No. 5; anti-human FRα/β antibody
- binding result: binds
